Columns and labels:
[1] = test system: rat primary hippocampal neurons; experiment: Neurotoxic effect of Aβ1-42 oligomers, MTT viability assay; type: cell-based; settings: 20 hr
Experimental: Amylospheroids (ASPDs) and Aβ monomers were prepared following Hoshi, M., et al. (2003) Proc Natl Acad Sci USA 100, 6370-6375, and Noguchi, A., et al. (2009) J Biol Chem 284, 32895-32905. Briefly, Aβ1-42 was dissolved in 1,1,1,3,3,3-hexafluoro-2-propanol and incubated overnight at 4° C. and then 3 hr at 37° C. The dissolved Aβ1-42 was then lyophilized in 1.5 ml polypropylene centrifuge tubes at 40 nmol/tube concentration. For preparing the ASPDs, the lyophilized Aβ was dissolved in phosphate buffered saline (PBS) without Ca^2+ or Mg^2+ at less than 50 μM concentration and rotated for 14 hr at 4° C. After incubation, the Aβ solution was purified using a 100 kDa molecular mass cutoff filter (Amicon Ultra, Millipore) and the high-molecular weight fraction was saved to obtain the most toxic ASPDs. Aβ derived diffusible ligands (ADDLs) were produced as previously described. See Lambert, M. P et al., Proc. Natl. Acad. Sci. USA, 1998, 95: 6448-6453. Briefly, Aβ1-42 was solubilized at 5 mM in dimethyl sulfoxide, diluted to 100 μM in F12k medium and was incubated at 4° C. for 24 hr. The solution was centrifuged at 14000×g for 10 min at 4° C. and the supernatant was used as the ADDLs.
(§1) Viability of cells was measured by MTT assay. MTT (i.e., 3-(4,5-dimethylthiazol-2-yl)-2,5-diphenyltetrazolium bromide) is a tetrazolium salt that is cleaved to formazan by the succinate dehydrogenase, which is only active in viable cells. After solubilization of the formazan, the amount of dye can be quantified with a microplate reader at 570 nm along with a reference of 630 nm. For the MTT assay, 5×10^4 primary rat hippocampal neurons from 18-day-old embryonic Sprague-Dawley rat brains or SH-SY5Y cells were plated on each well of 24-well plates coated with poly-D-lysine. After treatment, the cells were washed with 1× PBS and were incubated with 200 μl of 1 mg/ml MTT solution (Sigma, USA) at 37° C. for 2 hr. Then the MTT-solution was removed and the cells were lysed with 200 μl isopropanol containing 0.04 M HCl and […] for 10 min. Finally, the reading was taken at 570 nm and 630 nm. All the samples were done in triplicate and the data were represented as the percentage of control.
To assess the neurotoxic effect of different sized oligomers, rat primary hippocampal neurons were treated with variable concentrations of these Aβ1-42 species for 20 hr. Viability of the treated cells was compared to untreated cells using the MTT assay described above.

[2] = test system: differentiated human SH-SY5Y cells; experiment: Neuroprotection against ASPD, MTT assay, differentiated SH-SY5Y cells; type: cell-based; settings: ASPD alone, compared to untreated cells
Experimental: For differentiation, SH-SY5Y cells were maintained in medium containing 2% serum and treated with 10 μM all-trans-retinoic acid (RA) for 72 hr. Thereafter, the cells were treated with 0.27 nM Bryostatin 1 for 72 hrs. The medium was changed every 3 days with fresh supplementation of RA.
as §1
In ASPD-treated cells, the viability was 77.15±0.49% (p<0.0001, n=6) compared to the untreated cells.

ASPD: Amylospheroids from Aβ1-42, 100 kDa filter retentate, containing 39 monomers on average
Viability of primary neuron ([1]; 0.5 nM): 96.12 ± 0.733 % of control | Viability of primary neuron ([1]; 1 nM): 89.64 ± 5.99 % of control | Viability of primary neuron ([1]; 2 nM): 87.75 ± 0.94 % of control | Viability of primary neuron ([1]; 5 nM): 70.95 ± 1.89 % of control | Viability of primary neuron ([1]; 10 nM): 68.68 ± 0.84 % of control | Viability of primary neuron ([1]; 50 nM): 57.55 ± 3.35 % of control | Viability of primary neuron ([1]; 50 nM, listed as ASPDs): 57.1±4.9 % of control | Viability of primary neuron ([1]; 500 nM): 52.94 ± 3.75 % of control | viability of SH-SY5Y cells [2]: 77.15±0.49%

From patent publication US9163032B2, “Esters of DCPLA and methods of treatment using the same” (Blanchette Rockefeller Neurosciences Institute, priority 2011, dated 2015)
